# Values of other authors, collected in paper PMC8946809.
# Target: His516 (UniProt position 538, FRPNYHGVGTC)
# Experiment: kinetics
# Details: enzyme-substrate complex
substance,measurement,value
Glucose oxidase (GOx) (Aspergillus niger),pKa,6.9–7.8
